Laboratory results published in article PMC9454804.

Assays:
[1] = target: Vascular Endothelial Growth Factor Receptor 1 (VEGFR1) (mouse (endogenous in C57BL/6 and eNOS-KO skeletal muscle)) (UniProt P35969)
[2] = target: Vascular Endothelial Growth Factor Receptor 1 (VEGFR1) (mouse (endogenous in C57BL/6 and eNOS-KO skeletal muscle)) (UniProt P35969); remark: listed apart in the source
[3] = target: Vascular Endothelial Growth Factor Receptor 1 (VEGFR1) (mouse (endogenous in C57BL/6 and eNOS-KO skeletal muscle)) (UniProt P35969); remark: listed apart in the source

UniProt P35969, sequence (P35969 23-1333 S1181G): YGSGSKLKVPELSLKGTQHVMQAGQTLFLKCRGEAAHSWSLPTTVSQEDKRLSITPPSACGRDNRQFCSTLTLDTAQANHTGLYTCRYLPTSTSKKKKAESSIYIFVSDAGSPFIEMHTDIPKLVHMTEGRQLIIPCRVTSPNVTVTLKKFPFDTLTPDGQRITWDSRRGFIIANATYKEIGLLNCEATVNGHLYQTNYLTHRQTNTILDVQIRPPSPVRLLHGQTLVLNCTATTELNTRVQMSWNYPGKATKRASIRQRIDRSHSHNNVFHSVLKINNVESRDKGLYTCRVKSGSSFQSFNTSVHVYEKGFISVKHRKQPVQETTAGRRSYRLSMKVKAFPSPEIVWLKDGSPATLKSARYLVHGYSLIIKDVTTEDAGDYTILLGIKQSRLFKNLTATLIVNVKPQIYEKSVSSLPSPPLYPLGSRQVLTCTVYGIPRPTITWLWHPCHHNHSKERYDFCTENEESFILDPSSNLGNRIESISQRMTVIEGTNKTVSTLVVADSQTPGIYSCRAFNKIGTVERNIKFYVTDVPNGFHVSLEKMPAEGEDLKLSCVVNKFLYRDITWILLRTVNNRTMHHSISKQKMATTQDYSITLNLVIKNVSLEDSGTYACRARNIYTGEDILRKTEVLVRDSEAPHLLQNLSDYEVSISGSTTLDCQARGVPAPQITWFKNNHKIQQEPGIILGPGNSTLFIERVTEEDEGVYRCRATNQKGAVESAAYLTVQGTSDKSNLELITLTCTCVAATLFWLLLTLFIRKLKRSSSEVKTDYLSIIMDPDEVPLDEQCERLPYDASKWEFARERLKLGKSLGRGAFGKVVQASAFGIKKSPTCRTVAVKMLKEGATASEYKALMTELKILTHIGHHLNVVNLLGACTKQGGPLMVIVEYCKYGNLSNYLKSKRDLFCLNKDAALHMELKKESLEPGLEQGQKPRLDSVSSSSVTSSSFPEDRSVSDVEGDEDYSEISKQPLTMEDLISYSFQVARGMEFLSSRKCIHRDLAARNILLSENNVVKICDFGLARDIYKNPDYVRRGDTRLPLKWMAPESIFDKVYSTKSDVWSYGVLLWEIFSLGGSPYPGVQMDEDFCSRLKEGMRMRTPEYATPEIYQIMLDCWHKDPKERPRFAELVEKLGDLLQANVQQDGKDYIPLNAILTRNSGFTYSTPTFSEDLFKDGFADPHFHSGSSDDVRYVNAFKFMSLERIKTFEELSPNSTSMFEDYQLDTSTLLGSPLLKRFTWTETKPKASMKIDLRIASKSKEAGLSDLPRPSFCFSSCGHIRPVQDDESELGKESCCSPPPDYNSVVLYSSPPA

pVEGFR1(Y1333) activation in VEGFR1 pull-down fractions, non-ischemic HFD vs. non-ischemic normal chow muscle [1]: 1.5 fold
pSTAT3 activation, eNOS-KO ischemic muscle treated with VEGF165b-Ab vs. IgG [2]: 1.4 fold
pVEGFR1(Y1333) activation in VEGFR1 pull-down fractions, eNOS-KO ischemic muscle treated with VEGF165b-Ab vs. IgG [2]: 1.3 fold
pSTAT3 activation, HFD-ischemic muscle treated with VEGF165b-Ab vs. IgG at day 3 post-HLI [3]: 1.5 fold
pVEGFR1(Y1333) activation, HFD-ischemic muscle treated with VEGF165b-Ab vs. IgG at day 3 post-HLI [3]: 1.5 fold
Substance: anti-angiogenic VEGF-A isoform VEGF165b (ligand)
